Test results: publication PMC10569793

Experiments:
[1] = target: mitochondrial respiratory chain complex IV (D. melanogaster) (D. melanogaster (endogenous in fly mitochondria)); experiment: native gel or EMSA; BN-PAGE (NativePAGE 3-12% Bis-Tris) of wild-type fly mitochondria solubilised with 4 mg digitonin per mg protein; Coomassie stain and in-gel activity of CI and CIV
[2] = target: mitochondrial respiratory chain complex IV (D. melanogaster) (D. melanogaster (endogenous in fly mitochondria)); experiment: native gel or EMSA; BN-PAGE (NativePAGE 3-12% Bis-Tris) of mitochondria solubilised with 4 mg DDM per mg protein; Coomassie, in-gel activity, western blot of subunits; wild-type, Coa8 KO, Coa8 RNAi, strong Bcs1 RNAi and Ndufs4 RNAi flies or larvae with their controls
[3] = target: complex V (D. melanogaster), monomer (D. melanogaster (endogenous in fly mitochondria)); experiment: native gel or EMSA; BN-PAGE (NativePAGE 3-12% Bis-Tris) of wild-type fly mitochondria solubilised with 4 mg digitonin per mg protein; Coomassie stain and in-gel activity of CI and CIV
[4] = target: complex V (D. melanogaster), monomer (D. melanogaster (endogenous in fly mitochondria)); experiment: native gel or EMSA; complexome profiling: wild-type fly mitochondria solubilised with 6 g digitonin/g protein (50 mM NaCl, 5 mM 6-aminohexanoic acid, 1 mM EDTA, 50 mM imidazole/HCl pH 7.0), 4-16% gradient BN-PAGE, lane cut into 60 slices, LC-MS/MS, label-free quantification

Row | Substance | stoichiometry N [1] | stoichiometry N [2] | stoichiometry N [3] | stoichiometry N [4]
1 | mitochondrial respiratory chain complex IV (D. melanogaster) | 2 | 2 |  | 
2 | complex V (D. melanogaster), monomer |  |  | 2 | 2
